Assay [1] has as its target T1, recombinant human DLL4 (human, UniProt Q9NR61 25-522).
T1 construct: also called rhDLL4; hDLL4
Nature of the assay: binding ELISA, coated rhDLL4. The method, then:
(§1) In order to determine cross-reactivity to mouse DII4 a binding ELISA is performed. […] Wells are blocked with a casein solution (1% in PBS). VHHs are applied as dilution series and binding is detected using a mouse anti-myc (Roche) and an anti-mouse-AP conjugate (Sigma, St Louis, Mo., USA) (FIG. 7 A-H). As reference, binding to human DII4 is measured.
Background: An ELISA detects its analyte on a solid surface through an enzyme-linked reagent.

For the next assay, the target named is T2, recombinant mouse DLL4 (mouse, UniProt Q9JI71 27-532).
T2 construct: extracellular domain; also called rmDLL4; mDLL4
As to the kind of experiment: binding ELISA, coated rmDLL4. On the procedure:
as §1

The target in assay [2] is T3, human DLL4 overexpressed on cells (human, UniProt Q9NR61 27-685).
T3 construct: full length human DLL4 on CHO or HEK293 cells; also called CHO-hDLL4; CHO-hDII4
Nature of the assay: competitive FMAT, hNotch1-Fc on CHO-hDLL4.

For assay [3], the target named is T4, mouse DLL4 overexpressed on cells (mouse, UniProt Q9JI71 27-686).
T4 construct: whole, on cells; also called CHO-mDLL4; CHO-mDII4
Nature of the assay: competitive FMAT, hNotch1-Fc on CHO-mDLL4.

Assay [4] addresses T1, recombinant human DLL4. Nature of the assay: competition AlphaScreen, biot-hDLL4/hNotch1-Fc. On the procedure: In brief, 1 nM biotinylated human DII4 is captured on streptavidin-coated donor beads (20 μg/mL), while 0.4 nM of the receptor human Notch1 (as a Fc fusion protein) is captured on anti-human Fc VHH-coated acceptor beads (20 μg/mL). Both loaded beads are incubated together with a dilution range of the competing VHH (FIG. 4 A-E).
A general note: Alpha assays give light when donor and acceptor beads are brought close together.

The target of assay [5] is T3, human DLL4 overexpressed on cells. As to the kind of experiment: FACS titration on HEK293-hDLL4 cells, MCF. On the procedure:
(§2) In order to determine the cynomologus cross-reactivity of the VHHs, a FACS binding experiment is performed. Cynomolgus DII4 expressing HEK293 cells (transient or stable transfection) are used for a titration binding experiment of the VHHs. After a 30 minutes incubation on ice, all samples are washed and detection is performed by applying anti-c-myc˜Alexa647 (Santa Cruz Biotechnology, Santa Cruz, Calif., USA). Human and mouse DII4 overexpressing HEK293 cells are taken as reference. The mean MCF value is determined on the FACS Array and used for calculation of the EC₅₀ value (see FIG. 9 A-E).

The target of assay [6] is T5, cynomolgus DLL4 overexpressed on cells (cynomolgus, UniProt Q9NR61 27-685 (human entry)).
T5 construct: also called cyno DII4; cDLL4
T5 chain: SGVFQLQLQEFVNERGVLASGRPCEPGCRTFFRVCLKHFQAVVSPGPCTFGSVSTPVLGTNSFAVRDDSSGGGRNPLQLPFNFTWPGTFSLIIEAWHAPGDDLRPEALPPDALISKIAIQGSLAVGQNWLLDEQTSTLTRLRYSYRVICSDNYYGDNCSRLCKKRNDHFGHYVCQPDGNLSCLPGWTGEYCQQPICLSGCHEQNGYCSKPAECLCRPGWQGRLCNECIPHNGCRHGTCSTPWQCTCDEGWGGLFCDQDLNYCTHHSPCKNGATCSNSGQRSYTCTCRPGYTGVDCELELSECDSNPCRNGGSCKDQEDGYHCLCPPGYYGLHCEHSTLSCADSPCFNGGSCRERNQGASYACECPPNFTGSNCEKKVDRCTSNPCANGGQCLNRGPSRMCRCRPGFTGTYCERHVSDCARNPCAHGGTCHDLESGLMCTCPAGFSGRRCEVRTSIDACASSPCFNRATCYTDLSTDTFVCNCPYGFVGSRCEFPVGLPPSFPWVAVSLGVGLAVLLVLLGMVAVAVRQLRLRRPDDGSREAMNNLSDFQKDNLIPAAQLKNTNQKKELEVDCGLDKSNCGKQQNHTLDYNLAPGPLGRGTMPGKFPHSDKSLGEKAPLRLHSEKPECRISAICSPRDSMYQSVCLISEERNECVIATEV
Nature of the assay: FACS titration on HEK293-cDLL4 cells, MCF. On the procedure:
as §2

Assay [7] addresses T1, recombinant human DLL4. Nature of the assay: competition ELISA, biot-hDLL4 to coated hNotch1-Fc. An excerpt: Residual binding of biotinylated human DII4 is detected using horseradish peroxidase (HRP) conjugated extravidin (Sigma, St. Louis, Mo., USA) (FIG. 3 A-C). Human DII4 is biotinylated as described above.
The target in a further assay is T6, human DLL1 (human, UniProt O00548 18-545, limits assumed).
T6 construct: also called hDLL1
T6 sequence (looked up): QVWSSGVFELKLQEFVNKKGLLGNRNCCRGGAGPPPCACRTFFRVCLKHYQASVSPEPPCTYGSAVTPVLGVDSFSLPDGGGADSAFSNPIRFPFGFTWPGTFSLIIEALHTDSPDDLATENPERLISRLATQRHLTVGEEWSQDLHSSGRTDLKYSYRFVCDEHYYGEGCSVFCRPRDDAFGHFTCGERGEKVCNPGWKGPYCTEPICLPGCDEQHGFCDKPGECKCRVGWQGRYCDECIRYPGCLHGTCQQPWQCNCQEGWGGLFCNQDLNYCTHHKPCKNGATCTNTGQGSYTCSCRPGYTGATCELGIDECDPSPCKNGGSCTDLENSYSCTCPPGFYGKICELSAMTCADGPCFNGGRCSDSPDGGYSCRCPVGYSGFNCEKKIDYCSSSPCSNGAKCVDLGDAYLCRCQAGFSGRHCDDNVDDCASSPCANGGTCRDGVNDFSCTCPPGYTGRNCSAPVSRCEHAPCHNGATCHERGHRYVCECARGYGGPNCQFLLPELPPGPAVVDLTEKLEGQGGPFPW
As to the kind of experiment: binding ELISA on coated recombinant human DLL1, OD 405 nm. The method, then:
(§3) Absence of binding to homologous ligands human DLL1 and human Jagged-1 is assessed via solid phase binding assay (ELISA). In brief, human DLL1 (Alexis, San Diego, Calif., USA) and human Jagged-1 (Alexis, San Diego, Calif., USA) are coated overnight at 4° C. at 1 μg/mL in a 96-well MaxiSorp plate (Nunc, Wiesbaden, Germany). Wells are blocked with a casein solution (1% in PBS). VHHs are applied as dilution series and binding is detected using a mouse anti-myc (Roche) and an anti-mouse-AP conjugate (Sigma, St. Louis, Mo., USA).

The target of a further assay is T7, human Jagged-1 (human, UniProt P78504 34-1067, limits assumed).
T7 construct: also called hJagged-1; hJAG1
Nature of the assay: binding ELISA on coated recombinant human Jagged-1, OD 405 nm. On the procedure: as §3

In assay [8] the target is T1, recombinant human DLL4. As to the kind of experiment: SPR Biacore T100, hDLL4 on chip, VHH/Fab injected. On the procedure: Kinetic analysis to determine the affinity of the DII4-VHH interaction is performed by Surface Plasmon Resonance (SPR) on a Biacore T100 instrument. […] Purified VHHs or Fab fragment are injected for 2 minutes at different concentrations (between 10 and 300 nM) and allowed to dissociate for 20 min at a flow rate of 45 μl/min. Between sample injections, the surfaces are regenerated with 10 mM glycine pH1.5 and 100 mM HCl. HBS-N (Hepes buffer pH7.4) is used as running buffer. If possible, data are evaluated by fitting a 1:1 interaction model (Langmuir binding) onto the binding curves. The affinity constant KD is calculated from resulting association and dissociation rate constants (kₐ) and […].
On the technique in general: In SPR one partner is held on a chip, and binding of the other changes the refractive index at the surface.

Assay [9] has as its target T8, human DLL4, full length, overexpressed on cells (human, UniProt Q9NR61 27-685).
T8 construct: CHO cells in FMAT, HEK293 cells in the reporter assay; also called hDLL4; CHO-hDLL4
Nature of the assay: FMAT, hNotch1-Fc on CHO-hDLL4, -HSA.

Assay [10] concerns the target T9, mouse DLL4, full length, overexpressed on CHO cells (mouse, UniProt Q9JI71 27-686).
T9 construct: whole, on cells; also called mDLL4; CHO-mDLL4
Nature of the assay: FMAT, hNotch1-Fc on CHO-mDLL4, -HSA.

T2 sequence (Q9JI71 27-532): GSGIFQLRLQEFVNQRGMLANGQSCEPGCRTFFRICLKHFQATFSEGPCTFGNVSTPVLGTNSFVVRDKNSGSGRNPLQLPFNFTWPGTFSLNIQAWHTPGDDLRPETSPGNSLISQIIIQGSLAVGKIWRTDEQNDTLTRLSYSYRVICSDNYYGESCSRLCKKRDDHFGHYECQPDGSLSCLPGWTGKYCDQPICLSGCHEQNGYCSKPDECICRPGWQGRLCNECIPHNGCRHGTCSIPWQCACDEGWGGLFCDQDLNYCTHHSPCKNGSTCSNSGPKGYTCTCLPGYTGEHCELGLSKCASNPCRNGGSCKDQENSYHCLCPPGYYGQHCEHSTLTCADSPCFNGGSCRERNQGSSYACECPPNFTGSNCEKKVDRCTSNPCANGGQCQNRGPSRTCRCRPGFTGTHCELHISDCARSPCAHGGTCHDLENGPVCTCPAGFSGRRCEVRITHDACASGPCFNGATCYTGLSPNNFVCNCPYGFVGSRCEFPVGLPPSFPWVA
T4 sequence (Q9JI71 27-686): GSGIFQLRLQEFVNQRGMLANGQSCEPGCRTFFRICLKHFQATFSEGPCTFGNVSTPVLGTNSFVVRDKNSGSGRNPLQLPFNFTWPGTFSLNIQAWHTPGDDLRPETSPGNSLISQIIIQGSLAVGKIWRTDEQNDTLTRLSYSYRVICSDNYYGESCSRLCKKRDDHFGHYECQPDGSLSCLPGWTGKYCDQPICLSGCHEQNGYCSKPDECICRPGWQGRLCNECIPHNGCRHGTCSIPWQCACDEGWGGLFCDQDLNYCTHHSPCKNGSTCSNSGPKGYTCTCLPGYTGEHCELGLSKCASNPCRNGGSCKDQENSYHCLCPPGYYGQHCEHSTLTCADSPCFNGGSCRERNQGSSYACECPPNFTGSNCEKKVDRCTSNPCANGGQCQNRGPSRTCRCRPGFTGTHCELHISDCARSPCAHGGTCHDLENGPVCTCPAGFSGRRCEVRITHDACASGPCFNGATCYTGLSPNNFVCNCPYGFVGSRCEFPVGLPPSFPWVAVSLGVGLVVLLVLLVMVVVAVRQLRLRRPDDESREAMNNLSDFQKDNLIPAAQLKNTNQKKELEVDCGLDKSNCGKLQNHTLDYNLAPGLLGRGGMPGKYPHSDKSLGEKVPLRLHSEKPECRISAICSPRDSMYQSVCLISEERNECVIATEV

B1: DLLBII55D12 (VHH)
VHH: EVQLVESGGGLVQPGGSLRLSCAASGFTFDDYAIGWFRQAPGKEPEGISCISSSGGITYYADSVKGRFTISRDNAKNTVYLQMNSLKPEDTAVYYCATPGIAACRGIHYTGQGTQVTVSS
Take B1: the figures for the EC50 with recombinant human DLL4 [1] and in the assay with recombinant mouse DLL4 were 13.1 nM and 30 nM, respectively. Also, the IC50 in [2] was found to be 39.1 nM; in assay [3], 41 nM; with recombinant human DLL4 [4], 2.3 nM; in the assay with recombinant human DLL4 [7], 12.3 nM. Also, the “EC50 (read off the curve)” value in assay [5] was around 7 nM; in assay [6] it was around 6 nM. Moreover, the binding result in the assay with human DLL1 and with human Jagged-1 was “no binding (tested: 2.5e-7 M)” each time.

B2: DLLBII56H08 (VHH)
VHH: EVQLVESGGGLVQPGGSLRLSCAASGFTFDDYAIGWFRQAPGKEPEEISCISSSGGITYYADSVKGRFTISRDNAKNTVYLQMNSLKPEDTAVYYCATPGIAACRGIHYTGQGTQVTVSS
Regarding B2, the EC50 with recombinant human DLL4 [1] is 4.1 nM; with recombinant mouse DLL4, 8.7 nM. In addition, the IC50 in assay [2] stood at 22 nM; in assay [3], 33.7 nM; with recombinant human DLL4 [4], 1.6 nM; with recombinant human DLL4 [7] it was 6.9 nM. Also, the dissociation constant (Kd) in the assay with recombinant human DLL4 [8] turned out to be 9.4 nM. Also, in the assay with recombinant human DLL4 [8], the koff came out at 0.0011 s⁻¹. The kon in the assay with recombinant human DLL4 [8] was 120000 M⁻¹ s⁻¹. In addition, the “EC50 (read off the curve)” value in [5] is around 7 nM; in assay [6] it was around 4 nM. Also, the binding result in the assay with human Jagged-1 is listed as “no binding (tested: 2.5e-7 M)”.

B3: DLLBII56C04 (VHH)
VHH: EVQLVESGGGLVQPGGSLRLSCTASGFTFDVYAIGWFRQAPGKEPEGISCISSSGSITYYADSVKGRFTTSRDSAKNTVYLQMNSLKPEDTAVYYCATPGIAACRGIHYWGQGTQVTVSS
B3: the results for the EC50 with recombinant human DLL4 [1] and in the assay with recombinant mouse DLL4 were 44.3 nM and 244 nM, respectively. The IC50 in [2] worked out at 28.7 nM; in assay [3] it was 49.6 nM; with recombinant human DLL4 [4], 5.4 nM; in the assay with recombinant human DLL4 [7], 33.9 nM. The Kd in the assay with recombinant human DLL4 [8] was 45 nM. In addition, the koff with recombinant human DLL4 [8] was 0.0049 s⁻¹. In addition, the kon with recombinant human DLL4 [8] came out at 110000 M⁻¹ s⁻¹. The “EC50 (read off the curve)” value in [5] and in assay [6] was around 6 nM each time. Moreover, the binding result in the assay with human DLL1 and in the assay with human Jagged-1 was “no binding (tested: 2.5e-7 M)” in each case.

B4: DLLBII57C11 (VHH)
VHH: EVQLVESGGGLVQPGGSLRLSCTASGFTFDDYAIGWFRQAPGKEPEGISCISSSGSITYDADSVKGRFTISRDNAKNTVYLQMNSLKPEDTAVYYCATPGIAACRGIHYWGQGTQVTVSS
Take B4: the EC50 in the assay with recombinant human DLL4 [1] is 7.9 nM; with recombinant mouse DLL4, 83.4 nM. Also, the half-inhibitory concentration (IC50) in [2] amounted to 53.9 nM; in [3], 49.5 nM; with recombinant human DLL4 [4], 2.2 nM; with recombinant human DLL4 [7] it was 17.3 nM. Further, the “EC50 (read off the curve)” value in assay [5] and in [6] was around 10 nM in each case. Also, the binding result in the assay with human DLL1 and in the assay with human Jagged-1 was “no binding (tested: 2.5e-7 M)” each time.

B5: DLLBII039 (VHH)
VHH: EVQLVESGGGLVQPGGSLRLSCAASGFTIGSYDMSWVRRAPGKGPEWVSSISSGGGSTYYADYVKGRFTISRDNAKNTLYLQMNSLRPEDTAVYYCAADRYIWARQGEYWGAYEYDYWGQGTLVTVSS
Turning to B5, the “% inh” value was 102% in assay [9] and 100% in assay [10]. In addition, the IC50 was 3.6 nM in [9] and 6.7 nM in assay [10].

By EC50 is commonly meant the concentration needed to bring the measured effect to its halfway point. A word on the IC50: it is the concentration that inhibits the measured activity by half. As usually defined, the EC50 (read off the curve) is the concentration giving half of the maximal effect. For orientation: Kd means the equilibrium constant for the complex coming apart. Broadly, the koff is a measure of how fast the partners let go of each other. In general, kon refers to the second-order rate constant of association.

For the origin of these results see patent US20140120095A1 (Boehringer Ingelheim, published 2014).
